In PMC7719400:

Experiments:
[1] = target: ORFV125 lacking the 30 C-terminal residues (orf virus); assay: SEC
[2] = target: ORFV125 lacking the 30 C-terminal residues (orf virus); assay: ITC

| Molecule | stoichiometry N [1] | Kd [2] [nM] |
| --- | --- | --- |
| ORFV125 lacking the 30 C-terminal residues (domain or fragment) | 2 | – |
| PSSTMGQVGRQLAIIGDDINRRYDSE [Bak BH3 motif peptide (human, 67-92)] | – | 5800 |
| EEQWAREIGAQLRRMADDLNAQYERR [Puma BH3 motif peptide (human, 130-155)] | – | 1750 |
| VPQDASTKKLSECLKRIGDELDSNMELQ [Bax BH3 motif peptide (human, 50-77, 28-mer)] | – | 682 |
